One molecule from publication PMC4358366, “Identification of ‘erasers’ for lysine crotonylated histone marks using a chemical proteomics approach” (eLife, 2014) can be followed below.

The target of this test is T1, Sirt3 F180L (Homo sapiens, UniProt Q9NTG7, F180L).
T1 construct: His tag (from pTrcHis 2C vector; nickel column purification); made in house; host or cells: E. coli Rosetta
T1 sequence (Q9NTG7 102-399 F180L): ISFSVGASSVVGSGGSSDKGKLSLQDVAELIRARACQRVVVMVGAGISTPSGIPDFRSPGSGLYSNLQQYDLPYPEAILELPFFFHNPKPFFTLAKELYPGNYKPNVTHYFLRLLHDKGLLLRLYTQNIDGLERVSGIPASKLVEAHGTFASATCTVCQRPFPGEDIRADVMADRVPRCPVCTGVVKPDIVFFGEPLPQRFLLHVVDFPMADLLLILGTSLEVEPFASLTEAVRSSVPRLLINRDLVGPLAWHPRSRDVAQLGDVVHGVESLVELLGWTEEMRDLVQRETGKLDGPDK
The test can be described thus: Steady state kinetics of deacetylation by Sirt3 F180L mutant. The class given is biochemical. The settings on record: F180L vs wild-type Sirt3 (H3K4Ac, Figure 4—figure supplement 6). On the procedure: Plasmids of Sirt1 (193–747), Sirt2 (36–356), Sirt5 (34–302), and Sirt6 (1–314) for Escherichia coli expression were generated as previously described ([Finnin et al., 2001]; [Du et al., 2011]; [Hubbard et al., 2013]; [Jiang et al., 2013]). […] Sirt3 mutant F180L was generated by site directed mutagenesis. All of the proteins were expressed in E. coli Rosetta cells. To induce expression of target proteins, isopropyl β-D-1-thiogalactopyranoside was added to a final concentration of 0.2 mM when OD600 reached 0.6, and the culture was grown at 15 °C (Sirt3 at 25 °C) for 16–18 hr. Cells were harvested and resuspended in lysis buffer A (50 mM Tris–HCl, pH 7.5, 500 mM NaCl, 1 mM PMSF, and Roche EDTA free protease inhibitors, for Sirt1, Sirt2, and Sirt6) or buffer B (50 mM Tris–HCl, pH 7.5, 150 mM NaCl, 1 mM PMSF, and Roche EDTA free protease inhibitors, for Sirt3 and Sirt5). […]
Enzyme was incubated with different concentrations of corresponding peptides bearing two tryptophans at the C terminus (20, 40, 60, 80, 100, 200, and 500 μM) and 1.0 mM NAD in 20 mM Tris–HCl buffer (pH 7.5) containing 1 mM DTT in 25 μL reaction at 37°C for a certain period of time within the initial linear range. […] Samples were then analyzed by HPLC with a Vydac 218TP C18 column (4.6 mm×250 mm, 5 μm; Grace Davison). […]

B1: Sirt3 F180L: Sirt3 mutant with Phe180 mutated to leucine (protein, UniProt Q9NTG7 1-399, looked up, variant F180L)
chain: MAFWGWRAAAALRLWGRVVERVEAGGGVGPFQACGCRLVLGGRDDVSAGLRGSHGARGEPLDPARPLQRPPRPEVPRAFRRQPRAAAPSFFFSSIKGGRRSISFSVGASSVVGSGGSSDKGKLSLQDVAELIRARACQRVVVMVGAGISTPSGIPDFRSPGSGLYSNLQQYDLPYPEAILELPFFFHNPKPFFTLAKELYPGNYKPNVTHYFLRLLHDKGLLLRLYTQNIDGLERVSGIPASKLVEAHGTFASATCTVCQRPFPGEDIRADVMADRVPRCPVCTGVVKPDIVFFGEPLPQRFLLHVVDFPMADLLLILGTSLEVEPFASLTEAVRSSVPRLLINRDLVGPLAWHPRSRDVAQLGDVVHGVESLVELLGWTEEMRDLVQRETGKLDGPDK
On to B1, for which the “decrease in deacetylation activity caused by F180L mutation” value is recorded as “about a two-fold decrease”.
